In the series the test system is ATP. Briefly: switch fluorescence ratio, 500 uM ATP over buffer (Cy3 cluster intensity, sum of 5 cycles each) (fold (ratio)); higher = stronger signal-on switching upon ATP binding; sequences stand for … in TCGTCGGCAGCGTCAGATGTGTATAAGAGACAGTTTTTTTTTTTTTTTTTTTTTTTTT…TC. To be noted: aptamer strand: ATP DNA aptamer (quencher-CACCTGGGGGAGTATTGCGGAGGAAGG + anchor), 100 nM annealed; ATP concentration: 500 uM. Summed up: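 Cy3-labelled switching-strand clusters on a modified Illumina MiSeq flow-cell were annealed to 100 nM quencher-labelled ATP aptamer and imaged first in selection buffer, then after 15 min with 500 uM ATP at 22 °C. NaOH stripping and re-annealing separated each of five buffer/ATP cycles, and clusters outside 100-1000 RFU were excluded. The fluorescence ratio sums target-cycle Cy3 intensity over buffer-cycle Cy3 intensity per cluster and averages it per switch-domain sequence.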

± gives the standard deviation of the averaged measurements.
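Note: ATP exposure 15 min at 22 °C before imaging.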

In the case of ATTGAGGGGA, the switch fluorescence ratio came to 0.994 ± 0.032.

As for ATTGAGGGTC, the switch fluorescence ratio came out at 0.986 ± 0.018. As to ATTGAGTTAG, the switch fluorescence ratio came out at 0.99 ± 0.011. For the sequence ATTGAGTTAT, the switch fluorescence ratio was 0.967 ± 0.019. Next, ATTGATAGCA: 1.03 ± 0.028; ATTGATCTCC: 1.03 ± 0.072; ATTGATGATA: 1.018 ± 0.0092.

As for ATTGATGGCC, the switch fluorescence ratio came out at 0.963 ± 0.032. For ATTGATTCGG, the switch fluorescence ratio is 0.999 ± 0.014.

As for ATTGCAGCGG, the switch fluorescence ratio was found to be 1 ± 0.02.

Take ATTGCATTCA: the switch fluorescence ratio came out at 0.9949 ± 0.0041. As for ATTGCCCGTT, the switch fluorescence ratio is 1.09 ± 0.21. Turning to ATTGCCGAGT, the switch fluorescence ratio is 1.03 ± 0.022.

On to ATTGCGCAAG, for which the switch fluorescence ratio was determined as 1.01 ± 0.02.

Consider ATTGCTATGG, for which the switch fluorescence ratio was determined as 1.01 ± 0.016. Consider ATTGCTATTC, for which the switch fluorescence ratio came out at 1.03 ± 0.014.

On to ATTGCTGGGG, for which the switch fluorescence ratio turned out to be 1.01 ± 0.056. Regarding ATTGGAAAAG, the switch fluorescence ratio was determined as 0.985 ± 0.035.

As for ATTGGACTAG, the switch fluorescence ratio came out at 0.989 ± 0.07. Next, ATTGGACTG: 1.01 ± 0.035; ATTGGAGGGT: 0.979 ± 0.025; ATTGGAGTGG: 0.994 ± 0.032. Take ATTGGATGTG: the switch fluorescence ratio turned out to be 0.981 ± 0.019. Regarding ATTGGCGTGC, the switch fluorescence ratio is 0.987 ± 0.03. For the sequence ATTGGCGTGG, the switch fluorescence ratio came to 1.01 ± 0.019. Next, ATTGGGAGAT: 1.024 ± 0.0064. With ATTGGGAGGT, the switch fluorescence ratio was 0.972 ± 0.033. Regarding ATTGGGCAGT, the switch fluorescence ratio was determined as 0.973 ± 0.053. Next, ATTGGGGAGA: 1.04 ± 0.052; ATTGGGGAGC: 0.989 ± 0.014; ATTGGGGATT: 1.013 ± 0.009.

In the case of ATTGGGGCGC, the switch fluorescence ratio was 0.991 ± 0.041. Next, ATTGGGTCGG: 0.996 ± 0.02. For ATTGGTAGAG, the switch fluorescence ratio is 0.9717 ± 0.0024. Turning to ATTGGTAGTG, the switch fluorescence ratio is 0.997 ± 0.034. For the sequence ATTGGTCAGC, the switch fluorescence ratio was determined as 0.982 ± 0.035. ATTGGTGTAG: the switch fluorescence ratio was determined as 0.972 ± 0.023. With ATTGTAGGC, the switch fluorescence ratio was 1.01 ± 0.029. Take ATTGTAGTTT: the switch fluorescence ratio stood at 1 ± 0.066. For ATTGTATAAG, the switch fluorescence ratio came to 0.9828 ± 0.0052. With ATTGTATCAG, the switch fluorescence ratio turned out to be 0.983 ± 0.027.

For ATTGTATGGA, the switch fluorescence ratio was 1 ± 0.011. As for ATTGTATGGT, the switch fluorescence ratio is 0.956 ± 0.012. Take ATTGTCAGTT: the switch fluorescence ratio came to 1.013 ± 0.0029.

Turning to ATTGTCGTGA, the switch fluorescence ratio was found to be 0.991 ± 0.037. Regarding ATTGTCTAGC, the switch fluorescence ratio turned out to be 0.999 ± 0.019. For ATTGTCTTCG, the switch fluorescence ratio turned out to be 0.987 ± 0.041.

In the case of ATTGTGAACG, the switch fluorescence ratio is 1 ± 0.042. Regarding ATTGTGATGA, the switch fluorescence ratio came to 1.024 ± 0.0085.

Turning to ATTGTGCCGA, the switch fluorescence ratio came to 0.972 ± 0.011. Take ATTGTGCGAC: the switch fluorescence ratio is 1 ± 0.021. Consider ATTGTGCTTT, for which the switch fluorescence ratio worked out at 1.04 ± 0.024.

Consider ATTGTGGAGC, for which the switch fluorescence ratio amounted to 1.04 ± 0.061. Consider ATTGTGGGGT, for which the switch fluorescence ratio stood at 0.977 ± 0.04.

Consider ATTGTGGTCC, for which the switch fluorescence ratio amounted to 1.007 ± 0.0082. Regarding ATTGTGTTTT, the switch fluorescence ratio was found to be 0.99 ± 0.062. In the case of ATTGTTGATC it was 1.01 ± 0.029; in that of ATTGTTTAAG, 1.01 ± 0.024. In the case of ATTGTTTAGC it was 1.01 ± 0.075.

With ATTGTTTCCT, the switch fluorescence ratio was 1.06 ± 0.039. Next, ATTTACGAGT: 0.981 ± 0.045.

For ATTTACGGGT, the switch fluorescence ratio stood at 1.015 ± 0.0082.

As to ATTTAGGACT, the switch fluorescence ratio stood at 0.978 ± 0.027. As to ATTTAGGGTA, the switch fluorescence ratio was 0.9856 ± 0.0078. On to ATTTAGTTTA, for which the switch fluorescence ratio amounted to 0.996 ± 0.017. Turning to ATTTATGCGG, the switch fluorescence ratio is 0.985 ± 0.029.

ATTTATGGTA: the switch fluorescence ratio was found to be 0.971 ± 0.014.

Regarding ATTTATGTAA, the switch fluorescence ratio came out at 0.987 ± 0.012.

Consider ATTTATGTTT, for which the switch fluorescence ratio was 0.979 ± 0.03. As for ATTTATTCCT, the switch fluorescence ratio was determined as 1.05 ± 0.015. As to ATTTATTCTA, the switch fluorescence ratio amounted to 0.976 ± 0.036. For the sequence ATTTATTCTT, the switch fluorescence ratio turned out to be 1.011 ± 0.0052.

Take ATTTATTTGT: the switch fluorescence ratio was determined as 0.986 ± 0.03.

For the sequence ATTTCAGTGT, the switch fluorescence ratio is 1.009 ± 0.0044. ATTTCATGCG: the switch fluorescence ratio was found to be 1.03 ± 0.023. For the sequence ATTTCATGTG, the switch fluorescence ratio is 0.9853 ± 0.0035. With ATTTCCACAA, the switch fluorescence ratio came out at 1.1 ± 0.03. On to ATTTCCTGTG, for which the switch fluorescence ratio was 1.042 ± 0.0014. Turning to ATTTCGGGGT, the switch fluorescence ratio turned out to be 1.01 ± 0.042. ATTTCGGTCT: the switch fluorescence ratio came out at 0.9892 ± 0.0049. Next, ATTTCTTTCA: 1.02 ± 0.033; ATTTGAAACT: 1.02 ± 0.029; ATTTGAAGGT: 1.01 ± 0.018.

On to ATTTGAATGG, for which the switch fluorescence ratio was 0.987 ± 0.027. On to ATTTGAGGGC, for which the switch fluorescence ratio was determined as 1.01 ± 0.033.

For the sequence ATTTGAGTTT, the switch fluorescence ratio is 1.01 ± 0.038. As to ATTTGATTTG, the switch fluorescence ratio was determined as 1 ± 0.046. As to ATTTGCCCAT, the switch fluorescence ratio was 0.986 ± 0.019.

Regarding ATTTGCGTAC, the switch fluorescence ratio was 1.277 ± 0.0018. As to ATTTGCTATT, the switch fluorescence ratio came to 1.003 ± 0.0045. Next, ATTTGCTTAG: 0.994 ± 0.021; ATTTGGAATT: 1 ± 0.027. Take ATTTGGACGT: the switch fluorescence ratio came to 1.02 ± 0.016.

For ATTTGGCGGT, the switch fluorescence ratio turned out to be 0.997 ± 0.025. Next, ATTTGGGACA: 1.01 ± 0.012. Consider ATTTGGGCTT, for which the switch fluorescence ratio worked out at 1.05 ± 0.12.

In the case of ATTTGGGGCT, the switch fluorescence ratio was 0.981 ± 0.017.

As to ATTTGGTTTT, the switch fluorescence ratio came out at 0.999 ± 0.04. ATTTGTAATC: the switch fluorescence ratio was determined as 1.22 ± 0.31. With ATTTGTATTG, the switch fluorescence ratio was 1.01 ± 0.022. Next, ATTTGTGTAC: 1.047 ± 0.0071; ATTTGTGTTA: 1.01 ± 0.013; ATTTGTTAAG: 1 ± 0.016. In the case of ATTTGTTATC, the switch fluorescence ratio was 0.98096 ± 8.4e-05. Take ATTTGTTGGT: the switch fluorescence ratio is 0.991 ± 0.013. With ATTTGTTTTT, the switch fluorescence ratio worked out at 0.978 ± 0.01. For ATTTTAACT, the switch fluorescence ratio is 0.988 ± 0.013. For the sequence ATTTTAACTT, the switch fluorescence ratio turned out to be 1.35 ± 0.44.

On to ATTTTAAGGC, for which the switch fluorescence ratio came out at 1.002 ± 0.0054. In the case of ATTTTAGAAA, the switch fluorescence ratio turned out to be 1.01 ± 0.015. Next, ATTTTAGAAC: 1.013 ± 0.0031; ATTTTAGAGT: 1.018 ± 0.0063. For the sequence ATTTTAGCGT, the switch fluorescence ratio is 0.9958 ± 0.0062. On to ATTTTCAGTT, for which the switch fluorescence ratio came out at 1.01 ± 0.026. Take ATTTTCATGG: the switch fluorescence ratio stood at 0.954 ± 0.02. With ATTTTCCAGT, the switch fluorescence ratio was 1.01 ± 0.011. For ATTTTCGGCG, the switch fluorescence ratio was determined as 1.001 ± 0.0054. With ATTTTCTTCA, the switch fluorescence ratio stood at 1.02 ± 0.016. Consider ATTTTCTTTT, for which the switch fluorescence ratio turned out to be 1.06 ± 0.079.

Take ATTTTGAAGC: the switch fluorescence ratio is 0.991 ± 0.016.
